Data reported in patent US20020110800.

Molecular target: wild-type TrkA, baculovirus-expressed, activated (autophosphorylated) (UniProt P04629)

Question: With SHP-1 as the substance, how does the “dephosphorylation of 32P-autophosphorylated Trk in vitro” value read?
Answer: Its value is “approximately 5-fold dephosphorylation”.
